Experimental data taken from US20250163127A1.

How the values were obtained:
CD80 (human) = experiment: flow cytometry, cells expressing CD80, 20 nM
human PD-1 (human) [1] = biological target: human PD-1 (human) (UniProt Q15116); experiment: flow cytometry, cells expressing PD-1, 20 nM
[2] = substrate: ICOS as used in the OD read-out of Table E15A (Homo sapiens (Human)) (UniProt Q9Y6W8); experiment: OD read-out, format not told
[3] = biological target: CD28, full-length, expressed on transfected cells (Homo sapiens (Human)) (UniProt P10747); experiment: flow cytometry, cells expressing target
human PD-1 (human) [4] = biological target: human PD-1 (human) (UniProt Q15116); experiment: flow cytometry, Jurkat/PD-1 cells
human PD-1 (human) [5] = biological target: human PD-1 (human) (UniProt Q15116); experiment: flow cytometry, Jurkat/PD-1 cells, 50 nM
human PD-1 (human) [6] = biological target: human PD-1 (human) (UniProt Q15116)
PD-1-Fc (human) = PD-1-Fc (human) (UniProt Q15116); experiment: ForteBio Octet, PD-1 on anti-human capture sensor, 100 nM
PD-L1 (human) = experiment: flow cytometry on HEK293 cells transfected with PD-L1
PD-L1 (human), sequence (chain, as listed by the source): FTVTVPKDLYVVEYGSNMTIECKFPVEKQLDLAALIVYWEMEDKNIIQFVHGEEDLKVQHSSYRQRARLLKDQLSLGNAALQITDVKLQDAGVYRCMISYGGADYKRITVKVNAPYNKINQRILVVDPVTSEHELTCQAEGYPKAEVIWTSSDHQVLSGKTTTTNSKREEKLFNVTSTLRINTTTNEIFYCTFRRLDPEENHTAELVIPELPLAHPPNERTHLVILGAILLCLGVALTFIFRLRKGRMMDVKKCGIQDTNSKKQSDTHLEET

human PD-1 (human), sequence (Q15116 25-288): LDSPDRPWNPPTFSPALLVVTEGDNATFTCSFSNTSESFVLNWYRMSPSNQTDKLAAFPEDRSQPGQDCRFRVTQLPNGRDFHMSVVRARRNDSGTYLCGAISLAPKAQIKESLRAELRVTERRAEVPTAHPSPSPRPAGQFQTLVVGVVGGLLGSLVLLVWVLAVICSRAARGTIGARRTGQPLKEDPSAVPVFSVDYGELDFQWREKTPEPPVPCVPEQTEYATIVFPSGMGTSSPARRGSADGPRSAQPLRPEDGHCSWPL
PD-1-Fc (human), sequence (Q15116 25-167 limits assumed): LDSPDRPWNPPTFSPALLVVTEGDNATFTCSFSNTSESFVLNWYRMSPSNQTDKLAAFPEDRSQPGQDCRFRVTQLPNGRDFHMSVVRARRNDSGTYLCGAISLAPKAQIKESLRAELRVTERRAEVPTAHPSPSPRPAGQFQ
CD80 (human), sequence (chain, as listed by the source): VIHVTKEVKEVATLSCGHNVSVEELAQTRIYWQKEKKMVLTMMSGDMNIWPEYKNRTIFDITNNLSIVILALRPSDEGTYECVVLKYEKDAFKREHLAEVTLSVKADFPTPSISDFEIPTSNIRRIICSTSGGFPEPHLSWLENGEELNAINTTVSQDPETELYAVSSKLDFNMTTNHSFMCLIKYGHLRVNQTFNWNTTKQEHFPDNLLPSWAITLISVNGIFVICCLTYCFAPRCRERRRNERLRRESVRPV

B1: variant PD-L1 K57R/S99G/R195G Fc fusion (Fc fusion)
chain: FTVTVPKDLYVVEYGSNMTIECKFPVEKQLDLAALIVYWEMEDKNIIQFVHGEEDLRVQHSSYRQRARLLKDQLSLGNAALQITDVKLQDAGVYRCMIGYGGADYKRITVKVNAPYNKINQRILVVDPVTSEHELTCQAEGYPKAEVIWTSSDHQVLSGKTTTTNSKREEKLFNVTSTLRINTTTNEIFYCTFRGLDPEENHTAELVIPELPLAHPPNER
- MFI at 20 nM (CD80 (human)): 11000 MFI

B2: variant PD-L1 Y10F/M18V/S99G/Q138R/T203A Fc fusion (Fc fusion)
chain: FTVTVPKDLFVVEYGSNVTIECKFPVEKQLDLAALIVYWEMEDKNIIQFVHGEEDLKVQHSSYRQRARLLKDQLSLGNAALQITDVKLQDAGVYRCMIGYGGADYKRITVKVNAPYNKINQRILVVDPVTSEHELTCRAEGYPKAEVIWTSSDHQVLSGKTTTTNSKREEKLFNVTSTLRINTTTNEIFYCTFRRLDPEENHAAELVIPELPLAHPPNER
- MFI at 20 nM (human PD-1 (human) [1]): 70 MFI

B3: variant PD-L1 I36T/I83T/M97L/K144E/P198T Fc fusion (Fc fusion)
chain: FTVTVPKDLYVVEYGSNMTIECKFPVEKQLDLAALTVYWEMEDKNIIQFVHGEEDLKVQHSSYRQRARLLKDQLSLGNAALQTTDVKLQDAGVYRCLISYGGADYKRITVKVNAPYNKINQRILVVDPVTSEHELTCQAEGYPEAEVIWTSSDHQVLSGKTTTTNSKREEKLFNVTSTLRINTTTNEIFYCTFRRLDTEENHTAELVIPELPLAHPPNER
- MFI at 20 nM (human PD-1 (human) [1]): 62 MFI

B4: variant PD-L1 I36T/M97L/Q155H/F193S/N201Y Fc fusion (Fc fusion)
chain: FTVTVPKDLYVVEYGSNMTIECKFPVEKQLDLAALTVYWEMEDKNIIQFVHGEEDLKVQHSSYRQRARLLKDQLSLGNAALQITDVKLQDAGVYRCLISYGGADYKRITVKVNAPYNKINQRILVVDPVTSEHELTCQAEGYPKAEVIWTSSDHHVLSGKTTTTNSKREEKLFNVTSTLRINTTTNEIFYCTSRRLDPEEYHTAELVIPELPLAHPPNER
- MFI at 20 nM (CD80 (human)): 1250 MFI

B5: variant PD-L1 N17D/M97L/S99G Fc fusion (Fc fusion)
chain: FTVTVPKDLYVVEYGSDMTIECKFPVEKQLDLAALIVYWEMEDKNIIQFVHGEEDLKVQHSSYRQRARLLKDQLSLGNAALQITDVKLQDAGVYRCLIGYGGADYKRITVKVNAPYNKINQRILVVDPVTSEHELTCQAEGYPKAEVIWTSSDHQVLSGKTTTTNSKREEKLFNVTSTLRINTTTNEIFYCTFRRLDPEENHTAELVIPELPLAHPPNER
- MFI at 20 nM (human PD-1 (human) [1]): 10100 MFI

B6: ICOSL ECD-Fc N52S (Fc fusion)
chain: DTQEKEVRAMVGSDVELSCACPEGSRFDLNDVYVYWQTSESKTVVTYHIPQSSSLENVDSRYRNRALMSPAGMLRGDFSLRLFNVTPQDEQKFHCLVLSQSLGFQEVLSVEVTLHVAANFSVPVVSAPHSPSQDELTFTCTSINGYPRPNVYWINKTDNSLLDQALQNDTVFLNMRGLYDVVSVLRIARTPSVNIGCCIENVLLQQNLTVGSQTGNDIGERDKITENPVSTGEKNAAT
- OD [2]: 1.33 OD
- parental ratio [2]: 1.55 ratio to WT
- MFI [3]: 162 MFI
- parental ratio [3]: 9 ratio to WT

B7: ICOSL ECD-Fc N52S/Y152H (Fc fusion)
chain: DTQEKEVRAMVGSDVELSCACPEGSRFDLNDVYVYWQTSESKTVVTYHIPQSSSLENVDSRYRNRALMSPAGMLRGDFSLRLFNVTPQDEQKFHCLVLSQSLGFQEVLSVEVTLHVAANFSVPVVSAPHSPSQDELTFTCTSINGYPRPNVHWINKTDNSLLDQALQNDTVFLNMRGLYDVVSVLRIARTPSVNIGCCIENVLLQQNLTVGSQTGNDIGERDKITENPVSTGEKNAAT
- OD [2]: 0.85 OD
- parental ratio [2]: 0.99 ratio to WT
- MFI [3]: 68 MFI
- parental ratio [3]: 3.78 ratio to WT

B8: ICOSL ECD-Fc N52S/D158G (Fc fusion)
chain: DTQEKEVRAMVGSDVELSCACPEGSRFDLNDVYVYWQTSESKTVVTYHIPQSSSLENVDSRYRNRALMSPAGMLRGDFSLRLFNVTPQDEQKFHCLVLSQSLGFQEVLSVEVTLHVAANFSVPVVSAPHSPSQDELTFTCTSINGYPRPNVYWINKTGNSLLDQALQNDTVFLNMRGLYDVVSVLRIARTPSVNIGCCIENVLLQQNLTVGSQTGNDIGERDKITENPVSTGEKNAAT
- OD [2]: 1.33 OD
- parental ratio [2]: 1.55 ratio to WT
- MFI [3]: 39 MFI
- parental ratio [3]: 2.17 ratio to WT

B9: ICOSL ECD-Fc N52S/Y146C/Y152C (Fc fusion)
chain: DTQEKEVRAMVGSDVELSCACPEGSRFDLNDVYVYWQTSESKTVVTYHIPQSSSLENVDSRYRNRALMSPAGMLRGDFSLRLFNVTPQDEQKFHCLVLSQSLGFQEVLSVEVTLHVAANFSVPVVSAPHSPSQDELTFTCTSINGCPRPNVCWINKTDNSLLDQALQNDTVFLNMRGLYDVVSVLRIARTPSVNIGCCIENVLLQQNLTVGSQTGNDIGERDKITENPVSTGEKNAAT
- OD [2]: 1.26 OD
- parental ratio [2]: 1.47 ratio to WT
- MFI [3]: 39 MFI
- parental ratio [3]: 2.17 ratio to WT

B10: ICOSL ECD-Fc F120S/Y152H/N201S (Fc fusion)
chain: DTQEKEVRAMVGSDVELSCACPEGSRFDLNDVYVYWQTSESKTVVTYHIPQNSSLENVDSRYRNRALMSPAGMLRGDFSLRLFNVTPQDEQKFHCLVLSQSLGFQEVLSVEVTLHVAANSSVPVVSAPHSPSQDELTFTCTSINGYPRPNVHWINKTDNSLLDQALQNDTVFLNMRGLYDVVSVLRIARTPSVNIGCCIESVLLQQNLTVGSQTGNDIGERDKITENPVSTGEKNAAT
- OD [2]: 0.63 OD
- parental ratio [2]: 0.73 ratio to WT
- MFI [3]: 16 MFI
- parental ratio [3]: 0.89 ratio to WT

B11: ICOSL ECD-Fc N52D (Fc fusion)
chain: DTQEKEVRAMVGSDVELSCACPEGSRFDLNDVYVYWQTSESKTVVTYHIPQDSSLENVDSRYRNRALMSPAGMLRGDFSLRLFNVTPQDEQKFHCLVLSQSLGFQEVLSVEVTLHVAANFSVPVVSAPHSPSQDELTFTCTSINGYPRPNVYWINKTDNSLLDQALQNDTVFLNMRGLYDVVSVLRIARTPSVNIGCCIENVLLQQNLTVGSQTGNDIGERDKITENPVSTGEKNAAT
- OD [2]: 1.59 OD
- parental ratio [2]: 1.85 ratio to WT
- MFI [3]: 130 MFI
- parental ratio [3]: 7.22 ratio to WT

B12: PD-L1 IgV-Fc I20L/I36T/N45D/I47T (Fc fusion)
chain: FTVTVPKDLYVVEYGSNMTLECKFPVEKQLDLAALTVYWEMEDKDITQFVHGEEDLKVQHSSYRQRARLLKDQLSLGNAALQITDVKLQDAGVYRCMISYGGADYKRITVKVNA
- Fold increase over wildtype PD-L1 IgV-Fc (human PD-1 (human) [4]): 0.6 fold
- MFI at 50 nM (human PD-1 (human) [4]): 3120

B13: Full length ECD of PD-L2, Fc fusion (Fc fusion)
chain: LFTVTVPKELYIIEHGSNVTLECNFDTGSHVNLGAITASLQKVENDTSPHRERATLLEEQLPLGKASFHIPQVQVRDEGQYQCIIIYGVAWDYKYLTLKVKASYRKINTHILKVPETDEVELTCQATGYPLAEVSWPNVSVPANTSHSRTPEGLYQVTSVLRLKPPPGRNFSCVFWNTHVRELTLASIDLQSQMEPRTHPT
- MFI at 50 nM (human PD-1 (human) [5]): 2140 MFI
- IFN gamma levels pg/mL (MLR) (human PD-1 (human) [6]): 1170 pg/mL

B14: variant PD-L2 IgV H15Q/Q72H/V89D Fc fusion (Fc fusion)
chain: LFTVTVPKELYIIEQGSNVTLECNFDTGSHVNLGAITASLQKVENDTSPHRERATLLEEQLPLGKASFHIPHVQVRDEGQYQCIIIYGDAWDYKYLTLKVKA
- MFI at 50 nM (human PD-1 (human) [5]): 12600 MFI
- IFN gamma levels pg/mL (MLR) (human PD-1 (human) [6]): 1270 pg/mL

B15: variant PD-L2 IgV H15Q/V89D Fc fusion (Fc fusion)
chain: LFTVTVPKELYIIEQGSNVTLECNFDTGSHVNLGAITASLQKVENDTSPHRERATLLEEQLPLGKASFHIPQVQVRDEGQYQCIIIYGDAWDYKYLTLKVKA
- Fortebio Response Units (Response Units) (PD-1-Fc (human)): 0.31
- IFN gamma levels pg/mL (MLR) (human PD-1 (human) [6]): 1500 pg/mL

B16: variant PD-L2 IgV H15Q/N24S/T47A/Q72H/R76G/V89D Fc fusion (Fc fusion)
chain: LFTVTVPKELYIIEQGSNVTLECSFDTGSHVNLGAITASLQKVENDASPHRERATLLEEQLPLGKASFHIPHVQVGDEGQYQCIIIYGDAWDYKYLTLKVKA
- Fortebio Response Units (Response Units) (PD-1-Fc (human)): 0.4
- IFN gamma levels pg/mL (MLR) (human PD-1 (human) [6]): 1090 pg/mL

B17: variant PD-L2 IgV I13V/H15Q/T37A/E44D/S48C/S67L/Q82R/V89D Fc fusion (Fc fusion)
chain: LFTVTVPKELYIVEQGSNVTLECNFDTGSHVNLGAIAASLQKVDNDTCPHRERATLLEEQLPLGKALFHIPQVQVRDEGQYRCIIIYGDAWDYKYLTLKVKA
- Fortebio Response Units (Response Units) (PD-1-Fc (human)): 1.25
- IFN gamma levels pg/mL (MLR) (human PD-1 (human) [6]): 1750 pg/mL

B18: variant PD-L2 IgV H15Q/T47A/Q72H/R76G/I86T Fc fusion (Fc fusion)
chain: LFTVTVPKELYIIEQGSNVTLECNFDTGSHVNLGAITASLQKVENDASPHRERATLLEEQLPLGKASFHIPHVQVGDEGQYQCIITYGVAWDYKYLTLKVKA
- Fortebio Response Units (Response Units) (PD-1-Fc (human)): 0.512
- IFN gamma levels pg/mL (MLR) (human PD-1 (human) [6]): 1600 pg/mL

B19: variant PD-L2 IgV I13V/H15Q/T47A/R76G/V89D Fc fusion (Fc fusion)
chain: LFTVTVPKELYIVEQGSNVTLECNFDTGSHVNLGAITASLQKVENDASPHRERATLLEEQLPLGKASFHIPQVQVGDEGQYQCIIIYGDAWDYKYLTLKVKA
- Fortebio Response Units (Response Units) (PD-1-Fc (human)): 1.6
- IFN gamma levels pg/mL (MLR) (human PD-1 (human) [6]): 1250 pg/mL

B20: variant PD-L2 IgV H15Q/T47A Fc fusion (Fc fusion)
chain: LFTVTVPKELYIIEQGSNVTLECNFDTGSHVNLGAITASLQKVENDASPHRERATLLEEQLPLGKASFHIPQVQVRDEGQYQCIIIYGVAWDYKYLTLKVKA
- Fortebio Response Units (Response Units) (PD-1-Fc (human)): 0.016
- IFN gamma levels pg/mL (MLR) (human PD-1 (human) [6]): 1640 pg/mL

B21: variant PD-L2 IgV H15Q/S67L/R76G/I85F Fc fusion (Fc fusion)
chain: LFTVTVPKELYIIEQGSNVTLECNFDTGSHVNLGAITASLQKVENDTSPHRERATLLEEQLPLGKALFHIPQVQVGDEGQYQCIFIYGVAWDYKYLTLKVKA
- Fortebio Response Units (Response Units) (PD-1-Fc (human)): 0.025
- IFN gamma levels pg/mL (MLR) (human PD-1 (human) [6]): 1320 pg/mL

B22: variant PD-L2 IgV G28V/Q72H/R76G/I86T Fc fusion (Fc fusion)
chain: LFTVTVPKELYIIEHGSNVTLECNFDTVSHVNLGAITASLQKVENDTSPHRERATLLEEQLPLGKASFHIPHVQVGDEGQYQCIITYGVAWDYKYLTLKVKA
- Fortebio Response Units (Response Units) (PD-1-Fc (human)): 0.003
- IFN gamma levels pg/mL (MLR) (human PD-1 (human) [6]): 1780 pg/mL

B23: Variant CD80 E35G/K54E/A71D/L72P Fc fusion (Fc fusion)
chain: VIHVTKEVKEVATLSCGHNVSVEELAQTRIYWQKGKKMVLTMMSGDMNIWPEYENRTIFDITNNLSIVILDPRPSDEGTYECVVLKYEKDAFKREHLAEVT
- MFI at 22.2 nM (PD-L1 (human)): 1580 MFI
